The series in a line: yeast display, Sf9 membrane polyspecificity reagent, FACS + sequencing; frameworks hold sequencing errors. The procedure, abridged:
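Nanobodies from a synthetic yeast display library (Saccharomyces cerevisiae BJ5465), induced 36–48 hours with galactose, were stained 1 hour at 4 °C with 10% biotinylated, detergent-solubilized Sf9 membrane reagent, enriched on streptavidin microbeads, then FACS-sorted. Anti-HA (expression) and streptavidin (reagent binding) fluorescence set low and high (top ~1%) gates. Polyreactivity labels come from the gate of origin. Genes were colony-PCR amplified, MiSeq 2 × 250 sequenced and filtered by CDR length.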
With “QVQLVESGGGLVQAGGSLRLSCAASGRTFDGYSMGWYRQAPGKEREFVASINGGGSTNYADSVNGRFTISRDNAKNTVYLQMNSLKPEDTAVYYCAAESKGTWLYLYNSPHYYWGQGTQVTVSS”, the “polyreactivity (PSR sort gate)” value is “low polyreactivity”.

In the case of “QVQLVESGGGLVQAGGSLRLSCAASGRTFDGYTMGWSRQAPGKERELVAAISRTGSTNYADSVKGRFTISRDNAKNTVYLQMNSLEPEDTAVYYCNAARRYFRYSRKTSAWYYYWGQGTQVTVSS”, the “polyreactivity (PSR sort gate)” value is given as “high polyreactivity”.

As to “QVQLVESGGGLVQAGGSLRLSCAASGRTFDIYAMGWYRQAPGKERELVAAISSGGSTYYADSVKGRFTISRDNAKNTVYLQINSLKPEDTAVYYCAVRWYDQVSRRGIGYYWGQGSQVTVSS”, the “polyreactivity (PSR sort gate)” value is on record as “low polyreactivity”.

As for “QVQLVESGGGLVQAGGSLRLSCAASGRTFDLYAMGWDRQAPGKERELVAAITKGGGSTYYADSVKGRFTISRDNAKNTVYLQMNSLKPEDSAVYYCAARKYKRIYRISSGIGYYWGHGTQVTVSS”, the “polyreactivity (PSR sort gate)” value was “high polyreactivity”.

For “QVQLVESGGGLVQAGGSLRLSCAASGRTFDNNAMGWYRQAPGKEREFVAAITTGVGSTYADSVKGRFTISRDNAKNTVYLQMNSLKPEDTAVYYCAADSYWLFDAYDYWGQGTQVTVSS”, the “polyreactivity (PSR sort gate)” value is reported as “low polyreactivity”.

For the sequence “QVQLVESGGGLVQAGGSLRLSCAASGRTFDPNAMGWYRQAPGKERELVAAISGRGTSTYYADSVKGRFTISRDDAKNTVYLQMNSLKPEDTAVYYCAKAGAGESIAKYDYWGQGTQVTVSS”, the “polyreactivity (PSR sort gate)” value is reported as “low polyreactivity”.

Take “QVQLVESGGGLVQAGGSLRLSCAASGRTFDPNAMGWYRQAPGKERELVAVITARGGNTSYADSVKGRFTISRDNAKNTVYLQMISLKPEDTAVYYCAAPADDTVHYQNYYWGQGTQVTVSS”: the “polyreactivity (PSR sort gate)” value is “low polyreactivity”.

Regarding “QVQLVESGGGLVQAGGSLRLSCAASGRTFDPYAMGWYRQAPGKERELVAAITSSGGSTYYADSVKGRFTISRDNAKNTVYLQMNSLKPEDTAVYYCAAEQRDFIWWFYYWGQGTQVTVSS”, the “polyreactivity (PSR sort gate)” value is “high polyreactivity”.

As for “QVQLVESGGGLVQAGGSLRLSCAASGRTFDRNAMGWYRQAPGKEREVVAAISSSSGSTYYADSVKGRFTISRDNAKNTVYLQMNSLKPEDTAVYYCATVRWYYSRPRPTTAYGYWGQGTQGTVSS”, the “polyreactivity (PSR sort gate)” value is on record as “high polyreactivity”.

For the sequence “QVQLVESGGGLVQAGGSLRLSCAASGRTFDRYDMGWYRQAPGKERELVATISSSGGSTYYADSVKGRFTISRDNAKNTVYLQMNSLKPEDTAVYYCAADPSGDYWGQGTQVTVSS”, the “polyreactivity (PSR sort gate)” value is recorded as “low polyreactivity”.

On to “QVQLVESGGGLVQAGGSLRLSCAASGRTFDSNTMGWYRQAPGKERELVAAITGSGGRTYYADSVKGRFTISRDNAKNTVYLQMNSLKPEDTAVYYCNADSLYRYGSQYYYWGQGTQVTVSS”, for which the “polyreactivity (PSR sort gate)” value was “high polyreactivity”.

For “QVQLVESGGGLVQAGGSLRLSCAASGRTFDSYAMGWYRQAPGTETELVAGITRSGDSSYADSVKGRFTISRDNAKNTVYLQMTSLKPEDTAVYYCNKEGTVGGTRGYWGQGTQVTVSS”, the “polyreactivity (PSR sort gate)” value is listed as “low polyreactivity”.

For the sequence “QVQLVESGGGLVQAGGSLRLSCAASGRTFDSYTMGWYRQAPGKERELVAAINYSVASTNYADSLKGRFTISRDNAKITVYLQMNSLKTEDTAVYYCNRASAGWGPGTQVTVSS”, the “polyreactivity (PSR sort gate)” value is given as “low polyreactivity”.

As to “QVQLVESGGGLVQAGGSLRLSCAASGRTFDVYAMGWYRQAPGKERELVAAISKRGGSTYYADSVKGRFTISRDNAKNTVYLQMNSLKPEDTAVYYCNAYQTGWKGYDYWGQGTQVTVSS”, the “polyreactivity (PSR sort gate)” value is on record as “high polyreactivity”.

As for “QVQLVESGGGLVQAGGSLRLSCAASGRTFDYNAMGWYRQAPGKERELVAAISYSTGTTYYADSVKGRFTISRDNAKNTVYLQMNSLKPEDTAVYYCAAEIFYSEYGYWGQGTQVTVSS”, the “polyreactivity (PSR sort gate)” value was “low polyreactivity”.

With “QVQLVESGGGLVQAGGSLRLSCAASGRTFDYYTMGWYRQAPGKERELVAAISRSSGRTYYADSVKGRFTISRDNAKNTVYLQMNSLKPEDTAVYYCAARYYLSVRYGYWGQGTQVTVSS”, the “polyreactivity (PSR sort gate)” value is given as “high polyreactivity”.

Turning to “QVQLVESGGGLVQAGGSLRLSCAASGRTFEHYAMGWYRQAPGKEREFVAVIDSSDGSTYYADSVKGRFTISRDNAKNTVYLQMNSLKPEDTAVYYCLGGYYYLQYDYWGQGTQVTVSS”, the “polyreactivity (PSR sort gate)” value is “low polyreactivity”.

With “QVQLVESGGGLVQAGGSLRLSCAASGRTFEHYAMGWYRQAPGKERELVAAITWSGVSTYYADSVKGRFTISRDNAKNTVYVQMNSLKPEDTAVYYCAANWLGYGFDYWGQGTQVTVSS”, the “polyreactivity (PSR sort gate)” value is on record as “low polyreactivity”.

Take “QVQLVESGGGLVQAGGSLRLSCAASGRTFEHYGMGWYRQAPGKEREFVADISRIGGSTYADSVKGRFTISRDNAKNTVYLQKNSLKPEDSAVYYCNKARYQLGSGYNYWGQGTQVTVSS”: the “polyreactivity (PSR sort gate)” value is on record as “low polyreactivity”.

Take “QVQLVESGGGLVQAGGSLRLSCAASGRTFEIYAMGWYRHAPGKERELVAAISSSGGSTYYADSVKGRFTISRDNAKNTVYLQMNSLKPEDTAVYYCAARYRATLTRTRVGYWGQGTQLTVSS”: the “polyreactivity (PSR sort gate)” value is “high polyreactivity”.

On to “QVQLVESGGGLVQAGGSLRLSCAASGRTFEKNAMGWYRQAPGKERELVASITSVGSTDYADSVKGRFTISRDNAKNTVYLQMNSLKPEDTAVYYCAKTLGSQNYDFDYWGQGTQVTVSS”, for which the “polyreactivity (PSR sort gate)” value is on record as “low polyreactivity”.

With “QVQLVESGGGLVQAGGSLRLSCAASGRTFEVYAMGLYRQAPGKERELVATITYSGGITYYADSVKGRFTISRDNAKNTVYLQMNSLKPEDTAVYYPIGVRGDYDYWGQGTQVTVSS”, the “polyreactivity (PSR sort gate)” value is recorded as “low polyreactivity”.

Regarding “QVQLVESGGGLVQAGGSLRLSCAASGRTFEWNAMGWYRQAPGKERELVAAITKRGGITYYADSVKGRFTISRDNAKNTVYLQMNSLKPEDTAVYYCAKRIVFYGRYDYWGQGTQVTVSS”, the “polyreactivity (PSR sort gate)” value is “high polyreactivity”.

Turning to “QVQLVESGGGLVQAGGSLRLSCAASGRTFEYYAMGWYRQAPGKEREFVAAISRSGGSTYYADSVKGRFTISRDNAKNTVYLQMNSLKPEDTAVYYCAASAIRRSQRFYHWGQGTQVTVSS”, the “polyreactivity (PSR sort gate)” value is “high polyreactivity”.

“QVQLVESGGGLVQAGGSLRLSCAASGRTFFANAMGWYRQAPGKERELVAAISGSGDRTYYADSVKGRFTISRDNAKNTVYLQMNSLKPEDTAVYYCAAAGWSARGYNYWGQGTQVTVSS”: the “polyreactivity (PSR sort gate)” value is on record as “high polyreactivity”.

Regarding “QVQLVESGGGLVQAGGSLRLSCAASGRTFFDYAMGWYRQAPGKEWELVAAITASGSSTYYADSVKGRFTISRDNAKNTVYLQMNSLKPDDTAVYYCAAGASANKKITSYDYWGQGTQVTVSS”, the “polyreactivity (PSR sort gate)” value is on record as “low polyreactivity”.

On to “QVQLVESGGGLVQAGGSLRLSCAASGRTFFDYTMGWYRQAPGKERELVAAITGGDGSTYYADSVKGRFTISRDNAKTTVYLQMNSLKPEDTAVYDCAAEYTRTYWYAAMDYWGQGTQVTVSS”, for which the “polyreactivity (PSR sort gate)” value was “low polyreactivity”.

In the case of “QVQLVESGGGLVQAGGSLRLSCAASGRTFFGYAMGWYRQAPGKEREFVAAISGSGGSTYYADSVKGRFTISRDNAKNTVYLQMNSLKPEDTAVYYCNGDYWGEYYYWGQGTQVSVSS”, the “polyreactivity (PSR sort gate)” value was “low polyreactivity”.

“QVQLVESGGGLVQAGGSLRLSCAASGRTFFGYAMGWYRQAPGKERELVATISGSGASTYYADSVKGRFTISRDNAKNTVYLQMNSLKPEDTAVYYCAVRLYFYQRNYYSWGQGTQVTVSS”: the “polyreactivity (PSR sort gate)” value is reported as “high polyreactivity”.

Consider “QVQLVESGGGLVQAGGSLRLSCAASGRTFFGYAMGWYRQAPGTERELVAAINWGGASTYYADSVKGRFTISRDNAKNTVYLQMNSLKPEATAVYYCAADSVPSRPTYGRYDYWGQGTQVTVSS”, for which the “polyreactivity (PSR sort gate)” value is given as “low polyreactivity”.

For the sequence “QVQLVESGGGLVQAGGSLRLSCAASGRTFFHYAMGWYRQAPRKERELVAAISSGGGTYADSVKGRFTISRDNAKNTVYLQMNSLKPEDTAVYYCNADTDSAKSPAYYYWGQGTQVTVSS”, the “polyreactivity (PSR sort gate)” value is “low polyreactivity”.

As to “QVQLVESGGGLVQAGGSLRLSCAASGRTFFIYAMGWYRQAPGKERELVAAIRWRGGSTYYADSVKGRFTISRDNAKNTVYLQMNSLKPEDTAVYYCAASNRQARYEDYYWGQGTQVTVSS”, the “polyreactivity (PSR sort gate)” value is recorded as “high polyreactivity”.

With “QVQLVESGGGLVQAGGSLRLSCAASGRTFFKYAMGWYRQAPGKERELVAAITGRGGSTYADSVKGRFTISRDNAKNTVYLQMNCLKPEDTAVYYCAKVFQRGAQYYYYKYDYWGQGTQVTVSS”, the “polyreactivity (PSR sort gate)” value is “high polyreactivity”.

Turning to “QVQLVESGGGLVQAGGSLRLSCAASGRTFFPNAMGWYRQAPGKERELVAAISSGGSTYYADSVKGRFTISRDNAKNTVYLQMNSLKPEDTAVYYCAVYGFYSKYGYWGQGTQVTVSS”, the “polyreactivity (PSR sort gate)” value is recorded as “high polyreactivity”.

As to “QVQLVESGGGLVQAGGSLRLSCAASGRTFFRNAMGWYRQAPAKERELVAGISRSGGSTYYADSVKGRFTISRDNAQNTFSLEMNSLKPEDSAVYYFAAALYPYPGYEYWGQGTQVTVSS”, the “polyreactivity (PSR sort gate)” value was “high polyreactivity”.

In the case of “QVQLVESGGGLVQAGGSLRLSCAASGRTFFRNAMGWYRQAPGKERELVAGISRSGGSTYYADSVKGRFTISRDNAKNTVYLQMNSLKPEDTAVYYCAASFRFYRTGYYYWGQGTQVTVSS”, the “polyreactivity (PSR sort gate)” value is “high polyreactivity”.

As for “QVQLVESGGGLVQAGGSLRLSCAASGRTFFRNAMGWYRQAPGKERELVAGMSSSGGRTYADSVKGRYTISRDNAKNTVYLQMNSLKPEDTAVYYCAVQSGWVSGLRYYYWGQGTQVTVSS”, the “polyreactivity (PSR sort gate)” value was “high polyreactivity”.

As to “QVQLVESGGGLVQAGGSLRLSCAASGRTFFRYVMGWYRQAPGKERELVAAISRSGGSTYYADSVKGRFTISRDNAKNTVYLQMNSLKPEDTAVYYCNTVARSTVVPTEFDYWGQGTQVTVSS”, the “polyreactivity (PSR sort gate)” value is on record as “high polyreactivity”.

With “QVQLVESGGGLVQAGGSLRLSCAASGRTFFSFNAMVWYRQPPGKERELVAAIDGDGGITYYADSVKGRFTISRDNAKNTVYLQMNSLKPEDTAVYYCAAETLYSSAGEDDYWGQGTQVTVSS”, the “polyreactivity (PSR sort gate)” value is recorded as “low polyreactivity”.

Take “QVQLVESGGGLVQAGGSLRLSCAASGRTFFSYTMGWYRPAPGKERELFAAIYDSDGRTYYADSVKVRFTISRDNAKNTVYLQMYSLKPEDTAVYYCAAVPDKYWSRVRRYLFEHNYWGQGTKVTVSS”: the “polyreactivity (PSR sort gate)” value was “low polyreactivity”.

In the case of “QVQLVESGGGLVQAGGSLRLSCAASGRTFFTYAMGWYRQAPGKERELVAAITYRGGGTYYADSVKGRFTISRDNAKNTVYLQMNSLKPEDTAVYYCAAEYWVGVYLYDYWGQGTQVTVSS”, the “polyreactivity (PSR sort gate)” value is on record as “high polyreactivity”.
